Reference: the RNAGym collection of RNA variant scans (doi:10.7554/elife.90254)

B1: LINE1-full (parent)
chain: UACGUAGGUGGUUUUCCCCUGAUAGUGCUAAGGGGGCCUGGAAGUUUGGACUGGGCAGAGCUCAACACAGCGUGGCAAAGUGGCUGUGGCUAGACUGCCUCUCUGGAUUCCUCGUCACUCAGCAGGGCAUCUCUGAGAGAAAUGCC

Variants of: B1
Assay: self-cleavage, relative activity (ratio to wild type); higher = more cleavage; in vitro, sequencing; the parent is a self-cleaving ribozyme

Variant	self-cleavage
U29C C111U	1.13
U29C C113U	1.44
U29C C116A	1.16
U29C C128U	1.3
U29C C131U	0.93
U29C C146U	1.02
U29C G32A	1.08
U29C G34A	0.73
U29C G41A	1.32
U29C G41U	0.65
U29C G74A	1.11
U29C G82A	1.44
U29C G105A	1.13
U29C G122A	1.68
U29C G122U	1.35
U29C G125A	0.94
U29C G126A	0.77
U29C G144A	1.22
U29C U39C	1.74
U29C U39G	0.51
U29C U45A	0
U29C U46C	1.36
U29C U62A	0.03
U29C U73A	1.59

Variant	self-cleavage
U29C U85G	0.28
U29C U87A	0.16
U29C U87C	0.41
U29C U91C	1.38
U29C U96A	0.15
U29C U96C	0.24
U29C U100A	1.42
U29C U108G	1.2
U29C U109A	1.28
U29C U130A	1.26
U29C U130C	1.52
U29C U143C	1.75
U29G A64G	0.6
U29G A78G	0.87
U29G A107G	2.23
U29G C71G	0.23
U29G C99A	0.42
U29G U87C	0.19
U29G U115C	0.63
A30C	1.27
A30C A50G	1.21
A30C A65G	0.08
A30C A67C	0.21
A30C A136U	1.19

Variant	self-cleavage
A30C A138G	1.84
A30C C131G	2.01
A30C G36A	1.09
A30C G58U	0.09
A30C G122A	1.02
A30C U52C	0.33
A30C U81C	0.92
A30C U130A	0.75
A30G	1.09
A30G A31G	1.15
A30G A42U	1.06
A30G A43G	0.78
A30G A57C	0
A30G A57U	0.27
A30G A59U	0.78
A30G A65U	0.39
A30G A67G	0.51
A30G A67U	0.1
A30G A69C	0.26
A30G A69G	0.55
A30G A77G	2.12
A30G A78G	1.34
A30G A78U	1.44
A30G A94G	0.34

Variant	self-cleavage
A30G A94U	0.64
A30G A117U	1.17
A30G A121G	0.52
A30G A121U	0.84
A30G A124U	1.44
A30G A129U	0.89
A30G A136U	0.55
A30G A140C	0.93
A30G A141C	0.82
A30G A141U	1.06
A30G A142G	1.07
A30G A142U	0.99
A30G C56U	0.84
A30G C66U	0.05
A30G C71U	0.85
A30G C84A	0.22
A30G C84G	0.17
A30G C90U	0.07
A30G C99U	1.03
A30G C116U	1.27
A30G C118U	1.93
A30G G35A	1.11
A30G G36C	1.25
A30G G41U	1.66

Variant	self-cleavage
A30G G48A	0.5
A30G G49U	0.89
A30G G53A	0.94
A30G G75A	1.05
A30G G89C	0.07
A30G G106U	0.83
A30G G114A	0.92
A30G G125U	1.47
A30G G126C	1.72
A30G G135A	1.4
A30G G139A	1.31
A30G U39A	0.98
A30G U39C	1.13
A30G U45C	1.38
A30G U46A	0.84
A30G U46C	1.06
A30G U47A	1.57
A30G U47C	1.09
A30G U52A	1.21
A30G U52C	1.53
A30G U73C	2.09
A30G U81A	1.7
A30G U81C	1.33
A30G U85C	0.45

Variant	self-cleavage
A30G U87C	0.11
A30G U100A	1.59
A30G U100C	1.07
A30G U102G	1.84
A30G U115C	1.12
A30G U130C	1.36
A30G U132C	1.05
A30G U134A	1.05
A30G U134C	1.13
A30U	1.1
A30U A59G	0.22
A30U A64U	0.51
A30U A65U	0.19
A30U A67U	0.1
A30U A69G	0.4
A30U A77U	0.98
A30U A79G	0.91
A30U A94C	0
A30U A94U	0.34
A30U A121C	0.55
A30U A121G	1.08
A30U A124G	0.84
A30U A129G	0.58
A30U A129U	1.38

Variant	self-cleavage
A30U A140G	1.76
A30U A140U	0.67
A30U A142G	1.28
A30U C37G	0.81
A30U C38A	0.35
A30U C56U	0.04
A30U C61G	0.08
A30U C95A	0.03
A30U C113U	0.88
A30U G33A	1.23
A30U G34A	1.13
A30U G40U	0.97
A30U G49U	0.85
A30U G54U	0.84
A30U G72A	1.24
A30U G74C	1.27
A30U G89U	0.03
A30U G114C	1.25
A30U U39C	0.85
A30U U39G	1.46
A30U U45A	1.14
A30U U47C	1.07
A30U U47G	0.8
